Measurements published in patent US20210147519A1 (Regeneron, published 2021).

B1: H1H20631D (bispecific antibody, V domains shown)
VH 1: EVQLVESGGGLVQPGRSLRLSCTTSGFTFDDYAMHWVRQVPGQGLEWVAGLSWNSDTIGYADSVKGRFTISRDNAKNSLYLQMKSLKAEDTALYYCTKDFYHSLNNWNYYYFDYWGQGTLVTVSS
VH 2: EVQLVESGGGVVQPGGSLRLSCAASGFSLDDYAMHWVRQTPGKGLEWVSLISGDGSRTSYADSVKGRFTISRDNSKNSLYLKMNSLRTEDTALYYCTKDPHNSNWFDPWGQGTLVTVSS
VL: not shown
notes: H1H = human IgG1 Fc; also called anti-IsdB x anti-C1q bispecific antibody
B2: H1H20635D (bispecific antibody, V domains shown)
VH 1: EVQLVESGGGLVQPGRSLRLSCTTSGFTFDDYAMHWVRQVPGQGLEWVAGLSWNSDTIGYADSVKGRFTISRDNAKNSLYLQMKSLKAEDTALYYCTKDFYHSLNNWNYYYFDYWGQGTLVTVSS
VH 2: EVQLVQSGAEVKKPGESLKIFCKGSGYSFINDWIGWVRQMPGKGLEWMGLIFPGDSDTRYSPVFQGHVTISADQSIDTAYLQWNSLKASDTAIYYCAVLRYWHFAIWGRGTLVTVSS
VL: not shown
notes: also called anti-IsdB x anti-C1q bispecific antibody

Key:
[1] = molecular target: T1, native human complement component C1q protein purified from human serum (Quidel) (human, UniProt P02745 23-245; P02746 28-253; P02747 29-245); test: SPR Biacore, captured Ab, hC1q analyte, 37C; 37 C; hC1q binding to the C1q arm of the bispecific antibody
T1 construct: the protein assayed was bought native serum C1q (Quidel); no signal peptide limits are stated; also called hC1q; human C1q

[2] = molecular target: T1, native human complement component C1q …; test: SPR Biacore, captured Ab, hC1q analyte, 25C; 25 C; hC1q binding to the C1q arm of the bispecific antibody
[3] = molecular target: T2, IsdB expressed on the surface of S. aureus Wood 46 (Staphylococcus aureus); test: ELISA on plate-coated S. aureus Wood 46
T2 construct: whole, on cells
Description: Briefly, S. aureus Wood 46 was grown in RPMI overnight, washed in PBS and adjusted to an OD₆₀₀ of 0.25. MaxiSorp 96 well microtiter plates were coated overnight with 100 μl of S. aureus culture per well. Plates were washed and blocked with 3% BSA. […] Anti-human HRP conjugated secondary antibody was added to washed plates. Luminescence reagents (SuperSignal Pico) were then added to the wells and signal was detected in a plate reader (Victor X3 plate reader, Perkin Elmer) immediately. Luminescence values were analyzed by a four-parameter logistic equation over a 7-point response curve (GraphPad Prism) to determine the binding EC₅₀, of the antibodies.

[4] = molecular target: T1, native human complement component C1q …; test: cell-based or functional assay
[5] = molecular target: T1, native human complement component C1q …; test: SPR Biacore, captured Ab, hC1q analyte, 37C
[6] = molecular target: T1, native human complement component C1q …; test: cell-based or functional assay; remark: listed apart in the source
[7] = molecular target: T1, native human complement component C1q …; test: SPR Biacore, captured Ab, hC1q analyte, 25C
[8] = molecular target: T3, Recombinant bacterial IsdB expressed with a hexahistidine tag (IsdB-6xHis; REGN2655) (Staphylococcus aureus, UniProt A6QG30 42-613); test: SPR Biacore, captured Ab, IsdB-6xHis analyte, 37C
[9] = molecular target: T3, Recombinant bacterial IsdB expressed …; test: SPR Biacore, captured Ab, IsdB-6xHis analyte, 25C
[10] = molecular target: T1, native human complement component C1q …; test: cell-based or functional assay; remark: listed apart in the source
[11] = molecular target: T1, native human complement component C1q …; test: competition ELISA, 30 pM biot-hC1q, competitor plate-coated hIgG3-k
[12] = molecular target: T1, native human complement component C1q …; test: competition ELISA, 6 nM biot-hC1q, competitor plate-coated hIgG2-k
[13] = molecular target: T1, native human complement component C1q …; test: competition ELISA, 30 pM biot-hC1q, competitor plate-coated hIgG1-k
[14] = molecular target: T1, native human complement component C1q …; test: competition ELISA, 6 nM biot-hC1q, competitor plate-coated hIgM

T3 sequence (A6QG30 42-613, tags left off): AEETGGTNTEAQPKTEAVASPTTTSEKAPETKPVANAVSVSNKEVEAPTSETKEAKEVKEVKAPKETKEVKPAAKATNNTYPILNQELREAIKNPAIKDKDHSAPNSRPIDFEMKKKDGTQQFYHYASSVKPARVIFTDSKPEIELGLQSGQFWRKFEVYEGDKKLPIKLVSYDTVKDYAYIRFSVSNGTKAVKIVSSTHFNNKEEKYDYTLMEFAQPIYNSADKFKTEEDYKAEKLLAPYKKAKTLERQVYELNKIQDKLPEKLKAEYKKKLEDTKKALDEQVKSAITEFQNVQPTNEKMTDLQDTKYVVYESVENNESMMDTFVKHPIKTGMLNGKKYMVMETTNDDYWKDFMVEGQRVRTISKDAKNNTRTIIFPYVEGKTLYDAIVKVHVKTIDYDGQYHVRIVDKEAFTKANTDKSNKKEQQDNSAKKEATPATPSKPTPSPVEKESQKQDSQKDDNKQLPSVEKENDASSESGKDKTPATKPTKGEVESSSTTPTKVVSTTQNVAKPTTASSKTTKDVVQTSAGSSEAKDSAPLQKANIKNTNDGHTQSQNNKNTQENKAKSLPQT
T1 sequence (P02745 23-245 limits assumed, chain 1 of 3): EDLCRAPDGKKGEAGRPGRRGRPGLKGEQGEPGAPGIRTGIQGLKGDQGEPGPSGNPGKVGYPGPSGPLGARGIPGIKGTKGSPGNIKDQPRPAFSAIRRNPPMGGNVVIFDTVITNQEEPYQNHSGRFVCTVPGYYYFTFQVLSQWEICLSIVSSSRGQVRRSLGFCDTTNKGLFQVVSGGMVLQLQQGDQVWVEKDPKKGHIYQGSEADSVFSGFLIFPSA
T1 sequence (P02746 28-253 limits assumed, chain 2 of 3): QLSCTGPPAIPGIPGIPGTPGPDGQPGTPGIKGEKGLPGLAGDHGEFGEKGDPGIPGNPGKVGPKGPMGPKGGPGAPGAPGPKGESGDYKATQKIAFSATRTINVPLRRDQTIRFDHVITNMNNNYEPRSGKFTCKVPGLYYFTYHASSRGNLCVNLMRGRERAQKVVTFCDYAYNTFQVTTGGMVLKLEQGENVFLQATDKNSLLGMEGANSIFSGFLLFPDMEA
T1 sequence (P02747 29-245 limits assumed, chain 3 of 3): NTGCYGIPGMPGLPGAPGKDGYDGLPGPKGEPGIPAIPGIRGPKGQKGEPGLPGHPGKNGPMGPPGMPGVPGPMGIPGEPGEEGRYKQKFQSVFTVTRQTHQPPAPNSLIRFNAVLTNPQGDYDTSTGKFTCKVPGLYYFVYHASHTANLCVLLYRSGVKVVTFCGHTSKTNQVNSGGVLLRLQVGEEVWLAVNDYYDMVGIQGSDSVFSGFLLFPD
T2 sequence (Q2FZF0 41-613): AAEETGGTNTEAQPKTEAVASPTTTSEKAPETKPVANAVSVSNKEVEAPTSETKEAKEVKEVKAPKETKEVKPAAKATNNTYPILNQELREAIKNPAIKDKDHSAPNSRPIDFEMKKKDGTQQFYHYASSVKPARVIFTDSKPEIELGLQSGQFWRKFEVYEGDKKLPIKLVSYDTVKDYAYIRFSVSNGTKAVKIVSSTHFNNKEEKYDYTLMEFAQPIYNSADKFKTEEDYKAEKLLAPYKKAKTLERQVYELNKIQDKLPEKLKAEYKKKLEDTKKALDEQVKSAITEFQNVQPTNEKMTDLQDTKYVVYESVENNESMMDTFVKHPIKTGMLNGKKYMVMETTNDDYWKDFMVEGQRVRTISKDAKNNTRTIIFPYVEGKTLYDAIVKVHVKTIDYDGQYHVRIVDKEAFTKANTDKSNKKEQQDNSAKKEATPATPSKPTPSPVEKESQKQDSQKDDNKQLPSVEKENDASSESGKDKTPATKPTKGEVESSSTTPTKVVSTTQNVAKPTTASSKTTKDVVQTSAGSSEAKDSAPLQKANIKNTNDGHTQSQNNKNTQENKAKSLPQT

Row | Binder | Kd [1] | Kd [2] | EC50 [3] | C1q deposition on S. aureus Cowan I EC50 [4] | t1/2 [5] | Classical Pathway hemolysis assay % inhibition [6] | Classical Pathway hemolysis assay IC50 [6] | t½ [7] | Kd [8] | t1/2 [8] | Kd [9] | t½ [9] | inhibition of CDC of Daudi cells, IC50 [M] [10] | inhibition of CDC of Daudi cells, Max % Inhibition [10] | other results
1 | B1 | 0.193 nM | 0.228 nM | 1.26 nM | 0.297 nM | 5.19 min | 100% | 2.67 nM | 7.01 min | 3.43 nM | 20.7 min | 2.36 nM | 42.8 min | > 1e-07 M | 94% | 
2 | B2 | 0.723 nM | 0.309 nM | 1.96 nM | 0.425 nM | 0.66 min | 97% | 8.88 nM | 2.56 min | 3.33 nM | 22.2 min | 1.7 nM | 56.6 min | 2.8e-08 M | ≥ 99% | koff [5]: 0.0174 s⁻¹; kon [5]: 2.41e+07 M⁻¹ s⁻¹; % Blockade with 30 nM bispecific Ab [11]: 53%; % Blockade with 600 nM bispecific Ab [12]: 84%; IC50 [12]: 16 nM; % Blockade with 30 nM bispecific Ab [13]: 87%; koff [7]: 0.00452 s⁻¹; kon [7]: 1.46e+07 M⁻¹ s⁻¹; % Blockade with 600 nM bispecific Ab [14]: 93%; IC50 [14]: 12 nM; koff [8]: 0.00052 s⁻¹; kon [8]: 156000 M⁻¹ s⁻¹; koff [9]: 0.000204 s⁻¹; kon [9]: 120000 M⁻¹ s⁻¹
